# Assay results from the RNAGym collection of RNA variant scans (doi:10.1021/acssynbio.7b00057).
# B1: Pistol ribozyme (parent)
# chain: GGGUCGUUGUUCCAUAAUCGCGUGGAUAUGGCACGCAAGUUUCUACCGGGCACCGUAAAUGUCCGACUGGAGCCGUUCGGGCGGCUAUAAACAGACCUCAGGCCCGAAGCGUGGCGGCACCUGCCGCCGGUGGUAAAAAAGAUCGGAAGAGCACACGUCU
# Variants of: B1
# Assay: aptazyme ON/OFF ratio, guanine; higher = stronger switching; co-transcriptional cleavage with and without guanine
row,Variant,aptazyme ON/OFF ratio
1,U7G U8C G9U C12U C13G,1.16
2,U7G U8C G9U C12U C13A,1.18
3,U7G U8C G9U C12U C13U,1.41
4,U7G U8C G9U U10A U11A C12A C13A,1.29
5,U7G U8C G9U U10A U11A C12A C13U,1.32
6,U7G U8C G9U U10A U11A C12A C13G,1.11
7,U7G U8C G9U U10C C12U C13A,1.35
8,U7G U8C G9U U10C C12U C13U,1.26
9,U7G U8C G9U U10C C12U C13G,1.24
10,U7G U8C G9U U10C,1.64
11,U7G U8C G9U U10G,3.44
12,U7G U8C G9U U10A,4.06
13,U7G U8C G9U U10A C12U,2.85
14,U7G U8C G9U U10A C12G,1.77
15,U7G U8C G9U U10A C12A,1.88
16,U7G U8C G9U U10C U11C C12U C13U,1.27
17,U7G U8C G9U U10C U11C C12U C13G,1.41
18,U7G U8C G9U U10C U11C C12U C13A,1.55
19,U7G U8C G9U U10A U11C C12U C13U,1.56
20,U7G U8C G9U U10A U11C C12U C13A,1.48
21,U7G U8C G9U U10A U11C C12U C13G,1.25
22,U7G U8C G9U U10A U11G C12G C13U,1.1
23,U7G U8C G9U U10A U11G C12G C13G,1.13
24,U7G U8C G9U U10A U11G C12G C13A,1.13

row,Variant,aptazyme ON/OFF ratio
1,U7G U8C G9U U10A C12G C13A,1.13
2,U7G U8C G9U U10A C12G C13U,1.22
3,U7G U8C G9U U10A C12G C13G,1.08
4,U7G U8C G9U U10A C13A,1.35
5,U7G U8C G9U U10A C13U,2.29
6,U7G U8C G9U U10A C13G,1.08
7,U7G U8C G9U U10C U11C C12G,1.16
8,U7G U8C G9U U10C U11C C12U,1.29
9,U7G U8C G9U U10C U11C C12A,1.42
10,U7G U8C G9U U10G C12U C13A,1.29
11,U7G U8C G9U U10G C12U C13U,1.34
12,U7G U8C G9U U10G C12U C13G,1.39
13,U7G U8C G9U U10G U11A,1.21
14,U7G U8C G9U U10C U11C C13A,1.34
15,U7G U8C G9U U10C U11C C13U,1.52
16,U7G U8C G9U U10C U11C C13G,1.08
17,U7G U8C G9U U10C U11G,1.76
18,U7G U8C G9U U10C U11C,1.32
19,U7G U8C G9U U10C U11A,3.02
20,U7G U8C G9U U10G U11A C12A C13U,1.38
21,U7G U8C G9U U10G U11A C12A C13G,1.15
22,U7G U8C G9U U10G U11A C12A C13A,1.12
23,U7G U8C G9U U10A U11A C12G C13U,1.19
24,U7G U8C G9U U10A U11A C12G C13A,1.07

row,Variant,aptazyme ON/OFF ratio
1,U7G U8C G9U U10A U11A C12G C13G,1.16
2,U7G U8C G9U U10A U11C C12A C13G,1.33
3,U7G U8C G9U U10A U11C C12A C13A,1.28
4,U7G U8C G9U U10A U11C C12A C13U,1.59
5,U7G U8C G9U U10G C13G,1.27
6,U7G U8C G9U U10G C13U,1.24
7,U7G U8C G9U U10G C13A,1.24
8,U7G U8C G9U U10A U11G C12A,1.12
9,U7G U8C G9U U10A U11G C12U,1.33
10,U7G U8C G9U U10A U11G C12G,1.19
11,U7G U8C G9U U10C U11G C13G,1.09
12,U7G U8C G9U U10C U11G C13A,1.44
13,U7G U8C G9U U10C U11G C13U,1.38
14,U7G U8C G9U U10G C12G C13A,1.28
15,U7G U8C G9U U10G C12G C13U,1.23
16,U7G U8C G9U U10G C12G C13G,1.23
17,U7G U8C G9U U10A U11A,4.34
18,U7G U8C G9U U10A U11C,1.37
19,U7G U8C G9U U10A U11G,2.29
20,U7G U8C G9U U10C C12U,1.12
21,U7G U8C G9U U10C C12G,1.87
22,U7G U8C G9U U10C C12A,2.08
23,U7G U8C G9U U10G U11A C12G C13A,1.16
24,U7G U8C G9U U10G U11A C12G C13G,1.12

row,Variant,aptazyme ON/OFF ratio
1,U7G U8C G9U U10G U11A C12G C13U,1.25
2,U7G U8C G9U U10G C12A,1.58
3,U7G U8C G9U U10G C12U,1.25
4,U7G U8C G9U U10G C12G,1.5
5,U7G U8C G9U U10C U11A C13A,1.49
6,U7G U8C G9U U10C U11A C13G,1.06
7,U7G U8C G9U U10C U11A C13U,1.79
8,U7G U8C G9U U10A U11A C12A,1.63
9,U7G U8C G9U U10A U11A C12U,2.3
10,U7G U8C G9U U10A U11A C12G,1.6
11,U7G U8C G9U U10C U11C C12A C13A,1.52
12,U7G U8C G9U U10C U11C C12A C13G,1.22
13,U7G U8C G9U U10C U11C C12A C13U,1.54
14,U7G U8C G9U C13U,2.37
15,U7G U8C G9U C13G,1.04
16,U7G U8C G9U C13A,1.36
17,U7G U8C G9U U10A C12U C13U,1.16
18,U7G U8C G9U U10A C12U C13G,1.16
19,U7G U8C G9U U10A C12U C13A,1.21
20,U7G U8C G9U U10C U11A C12A C13U,2.1
21,U7G U8C G9U U10C U11A C12A C13A,1.52
22,U7G U8C G9U U10C U11A C12A C13G,1.31
23,U7G U8C G9U U10C C13U,1.47
24,U7G U8C G9U U10C C13G,1.12

row,Variant,aptazyme ON/OFF ratio
1,U7G U8C G9U U10C C13A,1.37
2,U7G U8C G9U U10C C12G C13G,1.22
3,U7G U8C G9U U10C C12G C13A,1.31
4,U7G U8C G9U U10C C12G C13U,1.29
5,U7G U8C G9U U10C U11G C12G C13G,1.11
6,U7G U8C G9U U10C U11G C12G C13A,1.08
7,U7G U8C G9U U10C U11G C12G C13U,1.08
8,U7G U8C G9U U10G U11A C13U,1.12
9,U7G U8C G9U U10G U11A C13G,1.07
10,U7G U8C G9U U10G U11A C13A,1.08
11,U7G U8C G9U U10C U11G C12U C13G,1.21
12,U7G U8C G9U U10C U11G C12U C13U,1.28
13,U7G U8C G9U U10C U11G C12U C13A,1.34
14,U7G U8C G9U U10A U11C C12G,1.26
15,U7G U8C G9U U10A U11C C12A,2.56
16,U7G U8C G9U U10A U11C C12U,1.72
17,U7G U8C G9U U10A U11G C12A C13A,1.1
18,U7G U8C G9U U10A U11G C12A C13G,1.09
19,U7G U8C G9U U10A U11G C12A C13U,1.11
20,U7G U8C G9U U10C U11A C12U C13G,1.39
21,U7G U8C G9U U10C U11A C12U C13A,1.72
22,U7G U8C G9U U10C U11A C12U C13U,1.9
23,U7G U8C G9U U10A U11C C12G C13A,1.14
24,U7G U8C G9U U10A U11C C12G C13G,1.05

row,Variant,aptazyme ON/OFF ratio
1,U7G U8C G9U U10A U11C C12G C13U,1.31
2,U7G U8C G9U U10C U11A C12U,2.96
3,U7G U8C G9U U10C U11A C12G,1.98
4,U7G U8C G9U U10C U11A C12A,2.7
5,U7G U8C G9U U10G C12A C13U,1.24
6,U7G U8C G9U U10G C12A C13A,1.37
7,U7G U8C G9U U10G C12A C13G,1.11
8,U7G U8C G9U U10A U11A C13A,1.3
9,U7G U8C G9U U10A U11A C13G,1.08
10,U7G U8C G9U U10A U11A C13U,1.79
11,U7G U8C G9U U10A C12A C13G,1.17
12,U7G U8C G9U U10A C12A C13A,1.18
13,U7G U8C G9U U10A C12A C13U,1.24
14,U7G U8C G9U U10C C12A C13U,1.58
15,U7G U8C G9U U10C C12A C13A,1.49
16,U7G U8C G9U U10C C12A C13G,1.27
17,U7G U8C G9U U10C U11A C12G C13G,1.31
18,U7G U8C G9U U10C U11A C12G C13U,1.2
19,U7G U8C G9U U10C U11A C12G C13A,1.39
20,U7G U8C G9U U10G U11A C12U C13U,1.36
21,U7G U8C G9U U10G U11A C12U C13A,1.21
22,U7G U8C G9U U10G U11A C12U C13G,1.23
23,U7G U8C G9U U10A U11C C13U,1.18
24,U7G U8C G9U U10A U11C C13A,1.42

row,Variant,aptazyme ON/OFF ratio
1,U7G U8C G9U U10A U11C C13G,1.05
2,U7G U8C G9U U10C U11C C12G C13U,1.22
3,U7G U8C G9U U10C U11C C12G C13A,1.45
4,U7G U8C G9U U10C U11C C12G C13G,1.29
5,U7G U8C G9U U10A U11G C13G,1.1
6,U7G U8C G9U U10A U11G C13A,1.14
7,U7G U8C G9U U10A U11G C13U,1.38
8,U7G U8C G9U C12U,4.27
9,U7G U8C G9U U10A U11G C12U C13A,1.2
10,U7G U8C G9U U10A U11G C12U C13U,1.16
11,U7G U8C G9U U10A U11G C12U C13G,1.11
12,U7G U8C G9U U10G U11A C12G,1.34
13,U7G U8C G9U U10G U11A C12U,1.1
14,U7G U8C G9U U10G U11A C12A,1.3
15,U7G U8C G9U U10C U11G C12A C13G,1.21
16,U7G U8C G9U U10C U11G C12A C13U,1.25
17,U7G U8C G9U U10C U11G C12A C13A,1.18
18,U7G U8C G9U U10A U11A C12U C13A,1.23
19,U7G U8C G9U U10A U11A C12U C13G,1.16
20,U7G U8C G9U U10A U11A C12U C13U,1.33
21,U7G U8C G9U U10C U11G C12A,1.75
22,U7G U8C G9U U10C U11G C12U,2.47
23,U7G U8C G9U U10C U11G C12G,1.1
